According to the supplement of paper PMC10065799, “High-throughput profiling of sequence recognition by tyrosine kinases and SH2 domains using bacterial peptide display” (eLife, 2023):

Experiments:
SHP2-C SH2 = experiment: SH2 binding enrichment of the phosphorylated peptide, bacterial display (enrichment ratio); higher = better substrate or ligand; peptides without Tyr show the background
Grb2 SH2 = Grb2 SH2 (UniProt P62993); experiment: as above
c-Src SH2 = experiment: as above
Fer (mouse) = experiment: phosphorylation enrichment, bacterial display (enrichment ratio); higher = better substrate or ligand; peptides without Tyr show the background
Jak2 = Jak2 (UniProt O60674); experiment: as above
FGFR3 = FGFR3 (UniProt P22607); experiment: as above
Hck = Hck (UniProt P08631); experiment: as above
Fes = Fes (UniProt P07332); experiment: as above
MERTK = MERTK (UniProt Q12866); experiment: as above
FGFR1 = FGFR1 (UniProt P11362); experiment: as above
c-Src = experiment: as above
AncSZ = experiment: as above
EPHB2 = EPHB2 (UniProt P29323); experiment: as above
EPHB1 = EPHB1 (UniProt P54762); experiment: as above
Fyn = Fyn (UniProt P06241); experiment: as above
c-Abl (mouse) = experiment: as above
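For SH2 binding enrichment of the phosphorylated peptide, bacterial display in this document: peptide library displayed on the E. coli surface as eCPX fusions, selected cells deep-sequenced, score is each peptide's frequency after selection divided by its frequency in the input.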
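For phosphorylation enrichment, bacterial display in this document: 11-residue human phosphosite peptides and single-mutation variants displayed on the E. coli surface, counted by deep sequencing, each peptide's frequency after selection divided by its frequency in the unselected input library; frequency after pTyr selection over input frequency; kinase dosed for 20-30% of maximal phosphorylation in three min.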

Chain of EPHB1 (P54762 whole entry, looked up): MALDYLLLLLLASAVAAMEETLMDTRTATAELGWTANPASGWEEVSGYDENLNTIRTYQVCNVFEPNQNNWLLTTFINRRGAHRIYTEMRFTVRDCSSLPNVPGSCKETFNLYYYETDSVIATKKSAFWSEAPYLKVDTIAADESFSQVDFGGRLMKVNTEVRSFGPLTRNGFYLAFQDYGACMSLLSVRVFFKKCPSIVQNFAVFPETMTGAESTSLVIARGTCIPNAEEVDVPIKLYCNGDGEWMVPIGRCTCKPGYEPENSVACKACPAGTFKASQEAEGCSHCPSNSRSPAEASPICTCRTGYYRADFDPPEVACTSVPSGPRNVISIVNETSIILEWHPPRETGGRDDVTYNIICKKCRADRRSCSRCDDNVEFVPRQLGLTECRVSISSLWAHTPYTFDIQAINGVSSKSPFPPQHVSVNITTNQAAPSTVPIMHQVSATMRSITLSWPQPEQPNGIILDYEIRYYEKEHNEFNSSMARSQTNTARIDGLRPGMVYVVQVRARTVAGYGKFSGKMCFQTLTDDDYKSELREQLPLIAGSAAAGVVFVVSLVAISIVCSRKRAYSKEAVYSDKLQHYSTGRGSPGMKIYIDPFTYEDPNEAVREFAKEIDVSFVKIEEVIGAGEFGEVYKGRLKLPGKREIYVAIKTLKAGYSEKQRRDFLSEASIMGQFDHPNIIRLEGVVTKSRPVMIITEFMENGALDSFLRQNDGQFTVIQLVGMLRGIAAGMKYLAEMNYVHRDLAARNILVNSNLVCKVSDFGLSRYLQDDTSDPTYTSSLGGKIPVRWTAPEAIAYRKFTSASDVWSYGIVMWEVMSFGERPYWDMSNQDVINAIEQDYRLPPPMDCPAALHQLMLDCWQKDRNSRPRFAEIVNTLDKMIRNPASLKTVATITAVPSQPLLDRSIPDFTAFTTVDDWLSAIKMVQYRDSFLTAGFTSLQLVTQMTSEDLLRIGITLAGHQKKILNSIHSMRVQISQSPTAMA
Chain of Hck (P08631 whole entry, looked up): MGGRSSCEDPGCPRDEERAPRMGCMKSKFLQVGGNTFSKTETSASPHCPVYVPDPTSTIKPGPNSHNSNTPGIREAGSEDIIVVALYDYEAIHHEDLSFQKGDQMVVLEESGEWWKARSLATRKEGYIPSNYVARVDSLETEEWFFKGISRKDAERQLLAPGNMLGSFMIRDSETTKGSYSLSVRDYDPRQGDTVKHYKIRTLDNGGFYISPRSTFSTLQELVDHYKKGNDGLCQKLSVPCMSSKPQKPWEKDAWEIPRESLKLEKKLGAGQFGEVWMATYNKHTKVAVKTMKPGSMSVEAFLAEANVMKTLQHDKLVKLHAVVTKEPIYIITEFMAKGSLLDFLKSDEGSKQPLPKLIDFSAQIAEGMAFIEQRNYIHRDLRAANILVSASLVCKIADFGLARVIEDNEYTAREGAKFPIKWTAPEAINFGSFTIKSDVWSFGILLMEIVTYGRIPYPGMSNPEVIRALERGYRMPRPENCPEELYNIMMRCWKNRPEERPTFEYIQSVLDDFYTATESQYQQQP
Chain of EPHB2 (P29323 whole entry, looked up): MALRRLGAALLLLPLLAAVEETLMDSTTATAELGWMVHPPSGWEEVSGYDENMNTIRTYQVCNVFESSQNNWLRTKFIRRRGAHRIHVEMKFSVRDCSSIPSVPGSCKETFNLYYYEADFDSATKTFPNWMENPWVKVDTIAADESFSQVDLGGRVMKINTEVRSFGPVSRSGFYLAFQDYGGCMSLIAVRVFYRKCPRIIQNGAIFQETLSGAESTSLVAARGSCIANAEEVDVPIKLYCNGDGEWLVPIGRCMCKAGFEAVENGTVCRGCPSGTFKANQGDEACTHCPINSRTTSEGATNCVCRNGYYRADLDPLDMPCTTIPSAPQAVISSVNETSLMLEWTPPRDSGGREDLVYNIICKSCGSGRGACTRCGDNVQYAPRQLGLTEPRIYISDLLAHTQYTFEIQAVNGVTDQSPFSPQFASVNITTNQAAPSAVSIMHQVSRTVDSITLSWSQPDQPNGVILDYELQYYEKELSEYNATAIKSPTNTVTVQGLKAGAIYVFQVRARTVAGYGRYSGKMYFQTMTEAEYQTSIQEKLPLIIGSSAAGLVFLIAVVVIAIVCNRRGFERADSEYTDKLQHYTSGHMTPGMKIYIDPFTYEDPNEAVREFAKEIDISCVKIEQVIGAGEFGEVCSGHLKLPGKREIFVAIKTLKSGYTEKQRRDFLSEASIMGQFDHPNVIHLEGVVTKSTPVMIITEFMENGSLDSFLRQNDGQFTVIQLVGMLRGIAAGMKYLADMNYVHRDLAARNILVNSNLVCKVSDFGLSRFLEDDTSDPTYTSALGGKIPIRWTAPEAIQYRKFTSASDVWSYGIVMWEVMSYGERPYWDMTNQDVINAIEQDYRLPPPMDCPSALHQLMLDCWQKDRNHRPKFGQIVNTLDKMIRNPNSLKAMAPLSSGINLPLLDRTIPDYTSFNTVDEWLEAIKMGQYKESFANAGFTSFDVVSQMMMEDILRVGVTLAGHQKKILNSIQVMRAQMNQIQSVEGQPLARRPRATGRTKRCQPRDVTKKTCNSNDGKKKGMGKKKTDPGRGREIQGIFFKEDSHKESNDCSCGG
Chain of Fyn (P06241 whole entry, looked up): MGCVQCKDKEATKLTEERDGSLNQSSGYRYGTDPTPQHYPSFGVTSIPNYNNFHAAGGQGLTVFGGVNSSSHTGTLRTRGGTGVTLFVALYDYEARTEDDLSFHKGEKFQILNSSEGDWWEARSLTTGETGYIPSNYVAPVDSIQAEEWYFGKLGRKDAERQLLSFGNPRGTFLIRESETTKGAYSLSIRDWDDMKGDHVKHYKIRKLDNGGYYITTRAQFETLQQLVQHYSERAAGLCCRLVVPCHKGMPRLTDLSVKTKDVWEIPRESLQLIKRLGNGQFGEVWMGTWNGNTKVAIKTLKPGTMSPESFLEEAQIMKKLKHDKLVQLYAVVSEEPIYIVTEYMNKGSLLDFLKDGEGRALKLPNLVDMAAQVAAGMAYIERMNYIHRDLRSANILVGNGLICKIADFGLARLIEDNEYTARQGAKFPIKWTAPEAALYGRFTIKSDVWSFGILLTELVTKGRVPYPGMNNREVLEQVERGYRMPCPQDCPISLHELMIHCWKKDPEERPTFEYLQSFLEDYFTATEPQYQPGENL
Chain of MERTK (Q12866 whole entry, looked up): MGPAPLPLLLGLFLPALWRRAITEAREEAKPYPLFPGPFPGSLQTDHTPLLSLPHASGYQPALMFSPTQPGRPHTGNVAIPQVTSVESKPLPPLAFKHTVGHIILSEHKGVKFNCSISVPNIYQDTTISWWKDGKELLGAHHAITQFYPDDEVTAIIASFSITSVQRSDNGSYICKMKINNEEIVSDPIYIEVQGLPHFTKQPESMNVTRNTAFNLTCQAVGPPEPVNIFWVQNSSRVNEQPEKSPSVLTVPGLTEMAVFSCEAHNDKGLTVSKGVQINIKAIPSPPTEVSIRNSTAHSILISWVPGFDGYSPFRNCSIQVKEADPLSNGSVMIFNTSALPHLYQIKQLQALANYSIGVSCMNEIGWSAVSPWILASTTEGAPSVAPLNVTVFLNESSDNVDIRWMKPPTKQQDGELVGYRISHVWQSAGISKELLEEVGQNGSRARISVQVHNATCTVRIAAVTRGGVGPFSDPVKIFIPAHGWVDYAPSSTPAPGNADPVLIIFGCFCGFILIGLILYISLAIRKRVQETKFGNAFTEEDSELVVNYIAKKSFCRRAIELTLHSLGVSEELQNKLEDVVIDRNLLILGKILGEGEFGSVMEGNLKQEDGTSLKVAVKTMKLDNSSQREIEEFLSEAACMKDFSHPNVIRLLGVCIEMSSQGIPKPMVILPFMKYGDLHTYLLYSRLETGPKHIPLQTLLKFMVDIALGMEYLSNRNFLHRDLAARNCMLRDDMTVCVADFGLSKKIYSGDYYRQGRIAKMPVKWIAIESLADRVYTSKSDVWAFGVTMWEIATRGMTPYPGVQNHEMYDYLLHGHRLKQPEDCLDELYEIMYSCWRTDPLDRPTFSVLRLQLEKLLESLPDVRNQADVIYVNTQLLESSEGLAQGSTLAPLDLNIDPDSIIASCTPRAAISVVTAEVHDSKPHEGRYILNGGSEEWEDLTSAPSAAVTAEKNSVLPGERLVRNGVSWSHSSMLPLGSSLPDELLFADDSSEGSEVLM
Chain of Fes (P07332 whole entry, looked up): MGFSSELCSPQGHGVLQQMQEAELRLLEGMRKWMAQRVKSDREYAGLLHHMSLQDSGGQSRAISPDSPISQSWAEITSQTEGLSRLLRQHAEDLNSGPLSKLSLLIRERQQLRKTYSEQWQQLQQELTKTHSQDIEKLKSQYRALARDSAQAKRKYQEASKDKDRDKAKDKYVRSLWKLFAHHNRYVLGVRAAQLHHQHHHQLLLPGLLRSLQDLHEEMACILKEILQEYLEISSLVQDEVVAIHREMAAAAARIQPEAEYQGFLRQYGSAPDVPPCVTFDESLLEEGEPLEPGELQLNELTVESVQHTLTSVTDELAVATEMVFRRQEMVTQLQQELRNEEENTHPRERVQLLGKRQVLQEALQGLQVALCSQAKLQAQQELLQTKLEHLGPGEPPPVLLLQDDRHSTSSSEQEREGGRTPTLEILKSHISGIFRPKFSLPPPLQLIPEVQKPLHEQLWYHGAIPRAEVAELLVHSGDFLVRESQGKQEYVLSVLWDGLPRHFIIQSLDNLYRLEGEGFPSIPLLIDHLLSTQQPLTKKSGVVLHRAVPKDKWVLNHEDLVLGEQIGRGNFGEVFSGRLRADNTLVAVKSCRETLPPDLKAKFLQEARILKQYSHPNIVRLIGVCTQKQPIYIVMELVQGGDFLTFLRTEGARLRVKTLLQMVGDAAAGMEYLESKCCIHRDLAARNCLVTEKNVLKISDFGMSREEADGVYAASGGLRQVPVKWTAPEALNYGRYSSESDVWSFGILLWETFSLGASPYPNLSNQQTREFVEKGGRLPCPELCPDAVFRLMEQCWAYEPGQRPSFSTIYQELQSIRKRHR

SH2 binding enrichment (SHP2-C SH2)	SH2 binding enrichment (Grb2 SH2)	SH2 binding enrichment (c-Src SH2)	Sequence	phosphorylation enrichment (Fer (mouse))	phosphorylation enrichment (Jak2)	phosphorylation enrichment (FGFR3)	phosphorylation enrichment (Hck)	phosphorylation enrichment (Fes)	phosphorylation enrichment (MERTK)	phosphorylation enrichment (FGFR1)	phosphorylation enrichment (c-Src)	phosphorylation enrichment (AncSZ)	phosphorylation enrichment (EPHB2)	phosphorylation enrichment (EPHB1)	phosphorylation enrichment (Fyn)	phosphorylation enrichment (c-Abl (mouse))
0.976	1.27	0.679	FRKNTYNVKST [SYNE2_Y575_I574T_YF]	0.375	0.402	0.366	0.402	0.578	0.473	0.352	0.437	0.466	0.333	0.425	0.426	0.609
0.599	0.694	0.517	VHSGTYQVTVC [MYBPC3_Y1043_R1048C]	0.516	1.01	0.93	0.588	1.23	0.575	0.51	0.684	1.03	0.655	0.749	0.555	0.883
0.627	0.773	0.444	SVMAEYGLFRA [VSX2_Y219_G223R_YF]	0.513	0.505	0.538	5.72	0.661	0.51	0.514	6.04	0.77	0.513	0.481	6.8	0.589
2.1	2.4	1.8	RLLVFYPWTQR [HBB_Y36_V35F]	0.65	1.73	0.891	0.557	1.47	0.512	0.877	0.509	2.05	0.938	0.794	0.616	1.02
1.04	1.29	0.54	LITLVYGCSRQ [TMPRSS6_Y290_S288L]	0.848	1.86	0.863	0.721	1.74	0.851	0.599	1.08	1.7	0.876	0.644	0.578	0.978
0.759	0.762	0.5	FARECYSALPQ [SARS2_Y52_G51C_YF]	0.982	0.761	1.06	2.93	1.01	1.18	1.17	0.702	1.66	0.603	0.55	0.671	0.726
0.728	6.49	1.02	EHLNRYINDTF [TTLL10_Y446_S448N]	0.53	1.08	0.654	0.49	1.08	0.46	0.525	0.517	0.853	0.608	0.567	0.467	0.751
0.633	1.01	0.51	ANAFIYDVQLP [L1CAM_Y420_V421D_YF]	1.19	0.849	0.627	4.65	0.938	7.43	0.639	4.96	1.1	1.3	1.69	6.97	0.715

Second part, the sequence before the results:

Sequence	SH2 binding enrichment (SHP2-C SH2)	SH2 binding enrichment (Grb2 SH2)	SH2 binding enrichment (c-Src SH2)	phosphorylation enrichment (Fer (mouse))	phosphorylation enrichment (Jak2)	phosphorylation enrichment (FGFR3)	phosphorylation enrichment (Hck)	phosphorylation enrichment (Fes)	phosphorylation enrichment (MERTK)	phosphorylation enrichment (FGFR1)	phosphorylation enrichment (c-Src)	phosphorylation enrichment (AncSZ)	phosphorylation enrichment (EPHB2)	phosphorylation enrichment (EPHB1)	phosphorylation enrichment (Fyn)	phosphorylation enrichment (c-Abl (mouse))
GKANRYFSPNF [PTEN_Y336_D331G]	1.06	0.967	0.525	0.477	0.811	0.685	0.398	0.612	0.46	0.455	0.528	0.622	0.424	0.379	0.479	0.779
GDPTEYYSTAI [IGSF22_Y501]	0.734	0.959	0.619	0.738	0.954	1.74	0.809	0.873	0.497	2.04	0.87	1.77	0.555	0.598	0.599	0.636
SIKDKYVTALY [KCNH2_Y611]	0.581	0.747	0.437	0.389	0.597	0.472	0.785	0.72	0.506	0.387	0.575	0.639	0.403	0.463	0.489	0.507
IEKLTYIDKWF [CPS1_Y872]	0.465	0.724	0.311	0.532	0.817	0.687	0.492	0.937	0.385	0.638	0.601	0.896	0.513	0.515	0.412	0.619
PLKYLYPNIDK [STAT1_Y668]	0.735	0.785	0.825	0.614	1	0.614	0.782	0.896	0.786	0.41	0.461	0.88	0.69	0.638	0.564	0.775
PAIFTYDEFKK [COL8A2_Y648_T645I_YF]	0.888	0.829	0.509	0.304	1.12	0.501	1.66	1.11	0.594	0.374	3	1.47	0.359	0.398	0.952	1.03
EPSLDYMVTKI [CPS1_Y768]	0.914	1.05	0.379	0.78	1.05	0.797	0.566	1.14	0.469	0.814	0.582	1.22	0.727	0.756	0.646	0.606
SLFNGYVFSGV [NEIL3_Y71_YF]	0.719	0.71	0.967	0.494	0.908	0.584	0.555	0.77	0.472	0.562	0.418	0.779	0.567	0.514	0.451	0.624
